From patent US6987089

Target: T1, His-CIA recombinant protein (His6-tagged mouse CIA)
T1 chain: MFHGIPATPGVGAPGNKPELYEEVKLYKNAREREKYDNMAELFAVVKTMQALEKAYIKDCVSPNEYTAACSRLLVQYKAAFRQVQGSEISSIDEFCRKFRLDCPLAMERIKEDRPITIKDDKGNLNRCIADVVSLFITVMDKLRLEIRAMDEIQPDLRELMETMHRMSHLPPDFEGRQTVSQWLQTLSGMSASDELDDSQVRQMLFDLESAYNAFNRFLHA

B1: ASK1-Flag (expressed from pcDNA3-ASK1-Flag in 293 cells, immunoprecipitated with anti-Flag) (protein)
chain: MSTEADEGITFSVPPFAPSGFCTIPEGGICRRGGAAAVGEGEEHQLPPPPPGSFWNVESAAAPGIGCPAATSSSSATRGRGSSVGGGSRRTTVAYVINEASQGQLVVAESEALQSLREACETVGATLETLHFGKLDFGETTVLDRFYNADIAVVEMSDAFRQPSLFYHLGVRESFSMANNIILYCDTNSDSLQSLKEIICQKNTMCTGNYTFVPYMITPHNKVYCCDSSFMKGLTELMQPNFELLLGPICLPLVDRFIQLLKVAQASSSQYFRESILNDIRKARNLYTGKELAAELARIRQRVDNIEVLTADIVINLLLSYRDIQDYDSIVKLVETLEKLPTFDLASHHHVKFHYAFALNRRNLPGDRAKALDIMIPMVQSEGQVASDMYCLVGRIYKDMFLDSNFTDTESRDHGASWFKKAFESEPTLQSGINYAVLLLAAGHQFESSFELRKVGVKLSSLLGKKGNLEKLQSYWEVGFFLGASVLANDHMRVIQASEKLFKLKTPAWYLKSIVETILIYKHFVKLTTEQPVAKQELVDFWMDFLVEATKTDVTVVRFPVLILEPTKIYQPSYLSINNEVEEKTISIWHVLPDDKKGIHEWNFSASSVRGVSISKFEERCCFLYVLHNSDDFQIYFCTELHCKKFFEMVNTITEEKGRSTEEGDCESDLLEYDYEYDENGDRVVLGKGTYGIVYAGRDLSNQVRIAIKEIPERDSRYSQPLHEEIALHKHLKHKNIVQYLGSFSENGFIKIFMEQVPGGSLSALLRSKWGPLKDNEQTIGFYTKQILEGLKYLHDNQIVHRDIKGDNVLINTYSGVLKISDFGTSKRLAGINPCTETFTGTLQYMAPEIIDKGPRGYGKAADIWSLGCTIIEMATGKPPFYELGEPQAAMFKVGMFKVHPEIPESMSAEAKAFILKCFEPDPDKRACANDLLVDEFLKVSSKKKKTQPKLSALSAGSNEYLRSISLPVPVLVEDTSSSSEYGSVSPDTELKVDPFSFKTRAKSCGERDVKGIRTLFLGIPDENFEDHSAPPSPEEKDSGFFMLRKDSERRATLHRILTEDQDKIVRNLMESLAQGAEEPKLKWEHITTLIASLREFVRSTDRKIIATTLSKLKLELDFDSHGISQVQVVLFGFQDAVNKVLRNHNIKPHWMFALDSIIRKAVQTAITILVPELRPHFSLASESDTADQEDLDVEDDHEEQPSNQTVRRPQAVIEDAVATSGVSTLSSTVSHDSQSAHRSLNVQLGRMKIETNRLLEELVRKEKELQALLHRAIEEKDQEIKHLKLKSQPIEIPELPVFHLNSSGTNTEDSELTDWLRVNGADEDTISRFLAEDYTLLDVLYYVTRDDLKCLRLRGGMLCTLWKAIIDFRNKQT
phosphorylation of GST-MKK6 (K82A) by immunoprecipitated ASK1 (immunocomplex kinase assay): The presence of the HIS-CIA recombinant protein, however, lowered the kinase activity of ASK1, which had been activated by the UV irradiation, resulting in a significant decrease in the phosphorylation of GST-MKK6
